Experimental findings from patent US20240052042A1 (Novartis, published 2024) are described below.

Experiment [1] has as its target T1, human NPR1 on CHO-K1 cells in the presence of ANP (human, UniProt P01160 124-151).
T1 construct: also called hNPR1 CHO K1 + 100 nM ANP
T1 sequence: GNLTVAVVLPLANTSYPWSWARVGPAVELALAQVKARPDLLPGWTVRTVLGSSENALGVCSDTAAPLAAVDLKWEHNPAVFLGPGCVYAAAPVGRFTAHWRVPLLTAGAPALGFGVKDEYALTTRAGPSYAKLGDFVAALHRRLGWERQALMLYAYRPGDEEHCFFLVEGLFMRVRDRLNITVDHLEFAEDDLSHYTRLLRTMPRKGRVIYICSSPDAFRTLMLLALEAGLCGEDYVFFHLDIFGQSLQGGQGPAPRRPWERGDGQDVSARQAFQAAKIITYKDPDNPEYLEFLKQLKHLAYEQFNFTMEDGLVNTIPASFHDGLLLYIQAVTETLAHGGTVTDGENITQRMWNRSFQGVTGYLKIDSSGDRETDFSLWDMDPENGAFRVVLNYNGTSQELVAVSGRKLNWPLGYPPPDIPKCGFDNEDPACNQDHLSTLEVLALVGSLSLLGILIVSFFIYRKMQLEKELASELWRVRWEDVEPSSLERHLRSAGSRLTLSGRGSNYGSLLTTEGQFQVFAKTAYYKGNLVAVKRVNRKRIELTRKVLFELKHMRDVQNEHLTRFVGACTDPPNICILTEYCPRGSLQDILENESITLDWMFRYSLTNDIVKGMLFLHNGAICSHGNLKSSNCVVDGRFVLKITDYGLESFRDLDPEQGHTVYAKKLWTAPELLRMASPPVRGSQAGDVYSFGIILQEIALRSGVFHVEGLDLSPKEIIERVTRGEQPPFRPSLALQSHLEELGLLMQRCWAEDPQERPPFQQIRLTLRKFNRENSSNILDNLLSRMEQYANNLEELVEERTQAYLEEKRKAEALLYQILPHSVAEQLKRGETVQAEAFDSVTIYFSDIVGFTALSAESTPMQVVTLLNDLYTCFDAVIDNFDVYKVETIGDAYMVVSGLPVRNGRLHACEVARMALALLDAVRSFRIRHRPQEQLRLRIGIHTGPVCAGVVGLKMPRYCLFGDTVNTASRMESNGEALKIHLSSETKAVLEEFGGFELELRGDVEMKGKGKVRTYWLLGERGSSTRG
T1 sequence (peptide): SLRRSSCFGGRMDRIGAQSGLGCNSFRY
The experiment is described as follows: flow cytometry, hNPR1 CHO-K1 cells, IgG.

Experiment [2] has as its target T2, human NPR1 on CHO-K1 cells (human, UniProt P16066 33-1061).
T2 construct: also called hNPR1 CHO K1; human NPR1 expressing CHO-K1 cells
T2 sequence: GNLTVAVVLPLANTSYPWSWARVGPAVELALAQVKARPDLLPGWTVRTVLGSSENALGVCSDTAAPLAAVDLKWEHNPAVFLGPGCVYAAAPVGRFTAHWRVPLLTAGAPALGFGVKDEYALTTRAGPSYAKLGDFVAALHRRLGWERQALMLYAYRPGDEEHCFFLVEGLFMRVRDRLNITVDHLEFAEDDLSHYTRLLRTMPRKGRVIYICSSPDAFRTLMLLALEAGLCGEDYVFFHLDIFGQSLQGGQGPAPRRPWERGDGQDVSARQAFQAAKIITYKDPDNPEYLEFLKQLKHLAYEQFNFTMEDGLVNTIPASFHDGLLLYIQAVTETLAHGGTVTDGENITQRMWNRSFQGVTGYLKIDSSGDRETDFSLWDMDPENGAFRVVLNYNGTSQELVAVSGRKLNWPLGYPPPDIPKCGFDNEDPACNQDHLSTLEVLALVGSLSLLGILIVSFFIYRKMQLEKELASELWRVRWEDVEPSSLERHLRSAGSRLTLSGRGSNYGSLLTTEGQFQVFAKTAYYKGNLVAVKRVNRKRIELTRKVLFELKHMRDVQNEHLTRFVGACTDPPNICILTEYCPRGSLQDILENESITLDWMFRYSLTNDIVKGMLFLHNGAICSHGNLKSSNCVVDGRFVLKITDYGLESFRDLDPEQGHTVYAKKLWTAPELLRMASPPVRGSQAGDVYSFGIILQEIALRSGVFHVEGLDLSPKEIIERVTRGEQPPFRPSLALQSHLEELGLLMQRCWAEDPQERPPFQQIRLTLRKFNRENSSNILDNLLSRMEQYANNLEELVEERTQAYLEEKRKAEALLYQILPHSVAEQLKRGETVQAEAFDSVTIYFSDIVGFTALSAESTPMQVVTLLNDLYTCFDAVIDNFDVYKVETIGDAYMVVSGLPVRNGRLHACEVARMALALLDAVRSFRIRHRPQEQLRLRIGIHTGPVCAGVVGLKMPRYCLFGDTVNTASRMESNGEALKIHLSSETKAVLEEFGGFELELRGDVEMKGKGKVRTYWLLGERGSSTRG
Kind of experiment: flow cytometry, hNPR1 CHO-K1 cells, IgG. A general note: In flow cytometry, cells or beads pass a laser one at a time.

In experiment [3] the target is constitutively active human NPR1 mutant (W74R) (human) (UniProt P16066). The experiment is described as follows: ELISA, IgG titrated on coated antigen, fluorescence [Cont.]. (In general: ELISA stands for enzyme-linked immunosorbent assay.)
A further experiment addresses T3, rat NPR1 (rNPR1) (rat, UniProt P18910 29-469, limits assumed).
T3 construct: Soluble antigen
T3 sequence: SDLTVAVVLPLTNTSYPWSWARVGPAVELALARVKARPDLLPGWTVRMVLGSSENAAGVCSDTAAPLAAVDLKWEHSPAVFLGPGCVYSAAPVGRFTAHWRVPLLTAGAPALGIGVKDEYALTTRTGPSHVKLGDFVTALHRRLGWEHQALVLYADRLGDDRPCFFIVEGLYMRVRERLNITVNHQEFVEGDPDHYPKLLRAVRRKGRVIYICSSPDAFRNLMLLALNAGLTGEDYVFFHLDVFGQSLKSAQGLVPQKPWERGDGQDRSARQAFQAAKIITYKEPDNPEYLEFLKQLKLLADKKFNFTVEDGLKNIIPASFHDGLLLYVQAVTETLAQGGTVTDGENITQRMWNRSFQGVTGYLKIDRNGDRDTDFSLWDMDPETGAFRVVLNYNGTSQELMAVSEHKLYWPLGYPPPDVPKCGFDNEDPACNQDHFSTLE
The experiment is described as above.

Experiment [4] has as its target T4, human NPR3 (counter target) (human, UniProt P17342 27-481, limits assumed).
T4 construct: Pannings used hNPR3-hFc; also called hNPR3; hNPR3-hFc
T4 sequence (looked up): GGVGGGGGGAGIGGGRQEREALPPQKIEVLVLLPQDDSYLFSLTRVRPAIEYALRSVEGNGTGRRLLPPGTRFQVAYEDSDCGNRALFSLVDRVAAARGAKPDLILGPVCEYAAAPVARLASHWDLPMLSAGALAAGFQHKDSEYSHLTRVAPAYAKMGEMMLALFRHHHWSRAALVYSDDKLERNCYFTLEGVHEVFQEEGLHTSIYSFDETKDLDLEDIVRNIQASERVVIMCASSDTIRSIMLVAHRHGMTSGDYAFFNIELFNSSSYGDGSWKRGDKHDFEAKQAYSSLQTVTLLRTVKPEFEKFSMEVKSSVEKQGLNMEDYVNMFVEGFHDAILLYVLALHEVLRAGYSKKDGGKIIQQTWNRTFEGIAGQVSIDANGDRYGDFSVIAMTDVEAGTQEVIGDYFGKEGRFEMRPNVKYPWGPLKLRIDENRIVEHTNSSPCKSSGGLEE
The experiment is described as above.

Another experiment deals with T5, rNPR1-ANP complex (rat, UniProt P01160 124-151 (human entry), limits assumed).
T5 construct: rNPR1 antigen in the presence of ANP; also called rNPR1 + 100 nM ANP
T5 sequence: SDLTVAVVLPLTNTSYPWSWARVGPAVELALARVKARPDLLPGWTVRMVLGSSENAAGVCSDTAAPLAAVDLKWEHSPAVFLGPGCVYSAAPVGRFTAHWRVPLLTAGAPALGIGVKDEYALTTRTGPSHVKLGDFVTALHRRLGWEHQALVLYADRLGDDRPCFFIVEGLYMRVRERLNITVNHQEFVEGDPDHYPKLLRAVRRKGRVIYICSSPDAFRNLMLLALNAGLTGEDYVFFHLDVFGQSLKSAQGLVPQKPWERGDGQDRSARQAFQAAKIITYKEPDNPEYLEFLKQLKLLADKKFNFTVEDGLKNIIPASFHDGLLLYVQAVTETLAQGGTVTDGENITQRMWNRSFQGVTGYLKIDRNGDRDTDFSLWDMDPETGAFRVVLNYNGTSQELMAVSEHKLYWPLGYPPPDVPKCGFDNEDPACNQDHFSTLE
T5 sequence (peptide): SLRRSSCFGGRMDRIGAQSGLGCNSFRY
The experiment is described as follows: ELISA, IgG titrated on coated antigen with ANP (250 fold molar excess), fluorescence [Cont.].

The target in experiment [5] is T6, human NPR3 in the presence of ANP (human, UniProt P17342 27-481; P01160 124-151, limits assumed).
T6 construct: also called hNPR3 + 100 nM ANP
T6 sequence (looked up): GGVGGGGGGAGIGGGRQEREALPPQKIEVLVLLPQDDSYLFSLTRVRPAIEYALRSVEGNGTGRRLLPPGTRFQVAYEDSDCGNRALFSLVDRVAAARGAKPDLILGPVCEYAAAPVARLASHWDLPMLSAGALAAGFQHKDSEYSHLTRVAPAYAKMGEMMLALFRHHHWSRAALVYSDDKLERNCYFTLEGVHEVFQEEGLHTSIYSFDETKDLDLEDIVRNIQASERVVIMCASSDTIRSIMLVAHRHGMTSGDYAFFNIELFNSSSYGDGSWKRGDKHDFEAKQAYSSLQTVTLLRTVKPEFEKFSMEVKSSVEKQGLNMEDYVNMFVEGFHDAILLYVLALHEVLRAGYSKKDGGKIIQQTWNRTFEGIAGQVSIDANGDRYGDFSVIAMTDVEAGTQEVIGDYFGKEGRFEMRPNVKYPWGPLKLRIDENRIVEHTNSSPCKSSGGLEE
T6 sequence (peptide, looked up): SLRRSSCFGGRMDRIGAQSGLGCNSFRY
Described as above.

B1: YY07 (IgG format) (antibody, V domains shown)
VH: EVQLVQSGAEVKKPGESLKISCKGSGYSFTSYWISWVRQMPGKGLEWMGIIYPGTSYTRYSPSFQGQVTISADKSISTAYLQWSSLKASDTAMYYCARGSLPGLLGFDHWGQGTLVTVSS
VL: QSVLTQPPSVSGAPGQRVTISCTGSSSNIGAGYDVHWYQQLPGTAPKLLIYGNSNRPNGVPDRFSGSKSGTSASLAITGLQAEDEADYYCQSYDSPTSSSVFGGGTKLTVLG
notes: also called YY07_LALA
For the molecule B1, the results for the “flow cytometry S/BG at 1 µM IgG” value in experiment [1] and in experiment [2] were 44 S/BG and 8 S/BG, respectively. In addition, the EC50 (read off the curve) (in general, the concentration giving half of the maximal effect) in experiment [3] stood at 2 nM. Also, the binding result (with rat NPR1 (rNPR1); in experiment [4]; with rNPR1-ANP complex; in experiment [5]) was “no binding (tested: 1000 nM)” each time.

B2: YY06 (IgG format) (antibody, V domains shown)
VH: EVQLLESGGGLVQPGGSLRLSCAASGFTFSSYAISWVRQAPGKGLEWVSAISGSGGSTYYAESVKGRFTISRDNSKNTLYLQMNSLRAEDTAVYYCARPYLGDRRSYGFDHWGQGTLVTVSS
VL: QSALTQPASVSGSPGQSITISCTGTSSDVGSYNLVSWYQQHPGKAPKLMIYEGSKRPSGVSNRFSGSKSGNTASLTISGLQAEDEADYYCSSYGFHIVVVVFGGGTKLTVLG
notes: also called YY06_LALA
As to B2, the “flow cytometry S/BG at 1 µM IgG” value was 18 S/BG in experiment [1] and 26 S/BG in experiment [2]. This molecule also returned an EC50 (read off the curve) in experiment [3] of 5 nM.
